This assay concerns PD-L1. Description: Flow cytometry of PD-L1 protein expression after interferon treatment. In kind it is cell-based, mouse. To be noted: CT2A and GL261 cells, day 4 post-treatment, IFN-β 1000 U/ml (FIGS. 5C-5F). As for the experimental part:
In another experiment, CT2A and GL261 cells were treated with IFN-β (1000 U/ml) (PBL Assay Science, Piscataway N.J.) and/or MAR-1-5A3 monoclonal antibody against IFNAR1 (BioXcel, West Lebanon, N.H.) ([…]). Cells were analyzed by flow cytometry for PD-L1 protein expression at day 4 post-treatment using either in the absence of specific antibody (isotype) or with PD-L1 specific antibody (BD Bioscience, San Jose, Calif.). Cells analyzed were either subjected to no treatment (untreated), or treated with INFα or INFβ.
FIG. 5D and FIG. 5F show quantification of the percent of live cells analyzed by flow cytometry that express surface PD-L1 above baseline.

B1: IFN-β: IFN-β (1000 U/ml) (PBL Assay Science) used to treat CT2A and GL261 cells (protein, UniProt P01575 22-182, looked up)
Interferon beta: INYKQLQLQERTNIRKCQELLEQLNGKINLTYRADFKIPMEMTEKMQKSYTAFAIQEMLQNVFLVFRNNFSSTGWNETIVVRLLDELHQQTVFLKTVLEEKQEERLTWEMSSTALHLKSYYWRVQRYLKLMKYNSYAWMVVRAEIFRNFLIIRRLTRNFQN
On to B1, for which the “Surface expression of PD-L1 protein” value was “increased surface expression of PD-L1 protein”. Besides, under “listed as INFβ”, the “Surface expression of PD-L1 protein” value is recorded as “Increases in surface PD-L1 expression”.

For the origin of these results see patent US20210369837A1, “METHODS OF TREATING TIM-3 ELEVATION” (ADVANTAGENE, INC., priority 2016, published 2021).
